The values below come from patent publication US20220127313A1.

What all share (assay): cell-based or functional assay
For experiment [1], the target named is p38 MAPK γ isoform, P53778.
The target in experiment [2] is p38 MAPK β isoform, Q15759.
Experiment [3] addresses p38 MAPK δ isoform, O15264.

Non-standard residues stand in square brackets, D forms with d. No end group written: not given here. pS = N[C@@H](COP(=O)(O)O)C(=O)O

Chain of p38 MAPK δ isoform, O15264 (O15264 whole entry, stated change not applied, canonical isoform): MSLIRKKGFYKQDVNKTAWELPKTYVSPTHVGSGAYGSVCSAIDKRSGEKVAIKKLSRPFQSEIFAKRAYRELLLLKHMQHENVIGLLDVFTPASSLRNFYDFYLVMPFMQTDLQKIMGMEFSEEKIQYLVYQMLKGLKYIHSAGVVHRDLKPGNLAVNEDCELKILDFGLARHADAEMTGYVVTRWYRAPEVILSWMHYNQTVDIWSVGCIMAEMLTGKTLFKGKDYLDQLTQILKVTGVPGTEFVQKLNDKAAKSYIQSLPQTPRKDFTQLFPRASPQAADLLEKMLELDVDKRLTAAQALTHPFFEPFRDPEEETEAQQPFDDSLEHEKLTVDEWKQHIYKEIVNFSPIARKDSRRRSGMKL
Chain of p38 MAPK γ isoform, P53778 (P53778 whole entry, canonical isoform): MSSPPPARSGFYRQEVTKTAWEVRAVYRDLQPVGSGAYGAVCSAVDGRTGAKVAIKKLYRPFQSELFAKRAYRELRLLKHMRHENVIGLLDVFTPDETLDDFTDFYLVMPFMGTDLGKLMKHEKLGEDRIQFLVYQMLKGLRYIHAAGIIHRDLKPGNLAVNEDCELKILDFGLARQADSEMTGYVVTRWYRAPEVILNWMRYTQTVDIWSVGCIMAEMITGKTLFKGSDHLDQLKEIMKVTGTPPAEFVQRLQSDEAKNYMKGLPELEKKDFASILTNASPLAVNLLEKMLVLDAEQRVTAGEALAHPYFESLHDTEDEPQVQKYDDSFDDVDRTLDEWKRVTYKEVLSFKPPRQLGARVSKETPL
Chain of p38 MAPK β isoform, Q15759 (Q15759 whole entry, canonical isoform): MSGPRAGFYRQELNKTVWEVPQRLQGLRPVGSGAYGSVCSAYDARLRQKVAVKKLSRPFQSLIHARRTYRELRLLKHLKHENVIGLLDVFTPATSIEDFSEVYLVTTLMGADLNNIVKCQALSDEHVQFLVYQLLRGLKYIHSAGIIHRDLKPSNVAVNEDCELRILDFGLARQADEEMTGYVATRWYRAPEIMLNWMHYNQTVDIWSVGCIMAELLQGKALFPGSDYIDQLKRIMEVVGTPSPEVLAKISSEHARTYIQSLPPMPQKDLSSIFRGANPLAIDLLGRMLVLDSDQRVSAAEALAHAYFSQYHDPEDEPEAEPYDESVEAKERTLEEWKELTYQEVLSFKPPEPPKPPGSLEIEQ

On to YARAAARQARASPAARRA[pS]AILPG [NiPp polypeptide (Niban phosphopeptide), …(pS)AILPG], for which the values for the % inhibition in kinase profiling screen, NiPp at 100 µM in experiment [1], in experiment [2] and in experiment [3] were 3%, 5% and 3%, respectively.
